The values below come from PMC9798253 (Protein Science : A Publication of the Protein Society, 2023).

The target of the assay is MBP-tagged ADD domain of DNMT3A (476-614) (human, UniProt Q9Y6K1 476-614). As to the kind of experiment: peptide or protein array.

B1: TRD 214–228 peptide (WT, 15mer, E214-T228) (peptide)
peptide: EKSPGKLLVKMPFQT
Regarding B1, the binding result was “binds”.
